According to PMC5123862:

Columns and labels:
[1] = target: Monoubiquitinated PCNA ((Ub)3-PCNA): a single ubiquitin moiety on K164 of each monomer within a homotrimeric clamp ring (human) (UniProt P12004)
[2] = target: Wild-type PCNA (human) (human) (UniProt P12004)
Wild-type PCNA (human) (human), sequence (P12004 whole entry): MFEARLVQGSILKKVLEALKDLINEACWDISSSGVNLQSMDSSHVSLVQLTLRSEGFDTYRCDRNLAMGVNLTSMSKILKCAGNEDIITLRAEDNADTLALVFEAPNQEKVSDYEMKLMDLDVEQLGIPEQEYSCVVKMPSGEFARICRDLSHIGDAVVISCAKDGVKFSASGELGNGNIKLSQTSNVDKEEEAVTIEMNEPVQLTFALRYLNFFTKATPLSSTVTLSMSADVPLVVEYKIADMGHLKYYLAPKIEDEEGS

B1: Pol η (human DNA polymerase eta, full length, wild type, unlabeled) (enzyme)
chain: MATGQDRVVALVDMDCFFVQVEQRQNPHLRNKPCAVVQYKSWKGGGIIAVSYEARAFGVTRSMWADDAKKLCPDLLLAQVRESRGKANLTKYREASVEVMEIMSRFAVIERASIDEAYVDLTSAVQERLQKLQGQPISADLLPSTYIEGLPQGPTTAEETVQKEGMRKQGLFQWLDSLQIDNLTSPDLQLTVGAVIVEEMRAAIERETGFQCSAGISHNKVLAKLACGLNKPNRQTLVSHGSVPQLFSQMPIRKIRSLGGKLGASVIEILGIEYMGELTQFTESQLQSHFGEKNGSWLYAMCRGIEHDPVKPRQLPKTIGCSKNFPGKTALATREQVQWWLLQLAQELEERLTKDRNDNDRVATQLVVSIRVQGDKRLSSLRRCCALTRYDAHKMSHDAFTVIKNCNTSGIQTEWSPPLTMLFLCATKFSASAPSSSTDITSFLSSDPSSLPKVPVTSSEAKTQGSGPAVTATKKATTSLESFFQKAAERQKVKEASLSSLTAPTQAPMSNSPSKPSLPFQTSQSTGTEPFFKQKSLLLKQKQLNNSSVSSPQQNPWSNCKALPNSLPTEYPGCVPVCEGVSKLEESSKATPAEMDLAHNSQSMHASSASKSVLEVTQKATPNPSLLAAEDQVPCEKCGSLVPVWDMPEHMDYHFALELQKSFLQPHSSNPQVVSAVSHQGKRNPKSPLACTNKRPRPEGMQTLESFFKPLTH
[1]
  abundance of the pol η TLS complex (P2, probability of insertion at i = 2) on undamaged TT P/T DNA: increase in the presence of (Ub)3-PCNA: 2.75 fold
[2]
  abundance of the pol η TLS complex (P2, probability of insertion at i = 2) on undamaged TT P/T DNA: increase in the presence of PCNA: 2.53 fold
  primer extension by pol η on the undamaged TT P/T DNA substrate under single turnover conditions: stimulation in the presence of PCNA against pol η alone: 2.02 fold
